Laboratory results from paper PMC9990120 (Journal of Proteome Research, 2023).

Molecular target: BirA*-FLAG tagged GSK-3β (UniProt P49841 1-420)
Assay: proximity labelling

Chain of BirA*-FLAG tagged GSK-3β (P49841 whole entry): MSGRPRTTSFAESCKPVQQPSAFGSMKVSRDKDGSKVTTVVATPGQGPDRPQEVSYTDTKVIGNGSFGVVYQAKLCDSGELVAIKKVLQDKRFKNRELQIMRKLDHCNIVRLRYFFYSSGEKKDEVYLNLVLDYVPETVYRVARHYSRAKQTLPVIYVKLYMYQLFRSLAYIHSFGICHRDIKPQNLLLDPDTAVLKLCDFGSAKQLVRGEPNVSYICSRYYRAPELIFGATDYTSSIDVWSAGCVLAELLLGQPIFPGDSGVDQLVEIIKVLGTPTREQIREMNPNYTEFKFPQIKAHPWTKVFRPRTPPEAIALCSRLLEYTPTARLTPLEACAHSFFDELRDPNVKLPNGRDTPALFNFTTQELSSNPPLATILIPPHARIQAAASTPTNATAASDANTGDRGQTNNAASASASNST

- fold signal intensity against the GSK-3α bait (normalised to bait level): ~4 fold
B1: MISP (natural protein)
chain: MDRVTRYPILGIPQAHRGTGLVLDGDTSYTYHLVCMGPEASGWGQDEPQTWPTDHRAQQGVQRQGVSYSVHAYTGQPSPRGLHSENREDEGWQVYRLGARDAHQGRPTWALRPEDGEDKEMKTYRLDAGDADPRRLCDLERERWAVIQGQAVRKSSTVATLQGTPDHGDPRTPGPPRSTPLEENVVDREQIDFLAARQQFLSLEQANKGAPHSSPARGTPAGTTPGASQAPKAFNKPHLANGHVVPIKPQVKGVVREENKVRAVPTWASVQVVDDPGSLASVESPGTPKETPIEREIRLAQEREADLREQRGLRQATDHQELVEIPTRPLLTKLSLITAPRRERGRPSLYVQRDIVQETQREEDHRREGLHVGRASTPDWVSEGPQPGLRRALSSDSILSPAPDARAADPAPEVRKVNRIPPDAYQPYLSPGTPQLEFSAFGAFGKPSSLSTAEAKAATSPKATMSPRHLSESSGKPLSTKQEASKPPRGCPQANRGVVRWEYFRLRPLRFRAPDEPQQAQVPHVWGWEVAGAPALRLQKSQSSDLLERERESVLRREQEVAEERRNALFPEVFSPTPDENSDQNSRSSSQASGITGSYSVSESPFFSPIHLHSNVAWTVEDPVDSAPPGQRKKEQWYAGINPSDGINSEVLEAIRVTRHKNAMAERWESRIYASEEDD
